The record followed here is paper PMC11263360, “The structural basis of the activation and inhibition of DSR2 NADase by phage proteins” (Nature Communications, 2024).

Changes are numbered by the printed parent chain. In names and notes the source's numbering stands.

The labels stand for the following.
B1: DSAD1 from SPbeta phage (co-expressed with DSR2) (natural protein, UniProt Q796A8 1-120, looked up)
chain: MIEIFKDTGATHDLVYHSKINTFVWDVEFDIVLSDSKELNKCYFVKCFNPYRINGKCDFAVSSIDIFSEGKRLLIENEFNFKITKAVHVATSKDVTEIVLHLSERISSPFPIVKEVVYLD
notes: DSAD1, SPbeta phage, WP_004399562, full length; source: E. coli BL21 (DE3), co-expressed with DSR2, complex co-purified (as apo DSR2: Ni-NTA, size exclusion)
B2: DSR2 from Bacillus subtilis 29 R, wild type (enzyme, UniProt P0DXN8 1-1005, looked up)
chain: MVKVDLESKRYGEKLKEVFLMLDNNVVECIKEITESSRNGKLVFFVGAGVSTLSDYPQWWRLVDKYHEELYGSPKKGNYSSDEYLRIPQIFYNVKGEMAFDGILKDFFQVDKPTNPIHDKILAMNPAHVITTNYDNLIDTACWKRGKYFSVISAEEDVANATSSRYLLKVHGDFRKGFKGENVVLKEDDYLNYDQNYPLISNLMKTIIATHTIVFIGYGLGDYNINMLLNWVRKLQKDSFHKPFFIRTDPSPIENETLIYYENKGLRIIDAASLIDSNEYDYLERYSAVMDLLIESQENKFITKDDEVIDYIYGKISPLFALQYIRKIDLKHVFEYDYHFEVNGTVVRHKNKGFGYMERFFELKESCDERSKLSKKQYERFNALFNFFEKNGVICMAKDAGTLNTSIEINSLAYHGKYDVMKKFIEEQSVSIEDDYKKAFFLACLGRWEESYDLYSNIILNSIDESNGCVYYLSQINRYRIYQSITQAVTQFNGLGLLTFGRHYKPFTDEFLARIEREMTNFNIDDLFNGMPFEFQKKYKILEFLSDNQFLYDDTVKLFELTNKVRSEMSEGSYSFGMSSDIVVLLRLYDNLRFLYENCLWSVSFHEFHQYIRNSMSLLIEKAEYERTRDIDELGFSFFGKKSGFFMEYYDFVNISRHFKIDDIKNLERSCSIDKIRFGEQEKIEEYLVGIAEEITKQFSANGMNVVFYTQFISEAKAALYFAKYVKLSEEGLGKIVKALLFYFPERDLDIGKRYVWLERLTKCNELPKSIISIIDDFLVLQAEKHIDQNYSEVSSNGLYSRDYGALIKHFEKNFISKRLSEITLCLTQDKQKQIDFLFKLLPLLSTNAKSHLLSFKSVENINDLMNGIRIGLIDEFTPEHEELIIEYLETRKVNYIVEKEKGIQTFSSNDYMSTFGIWYFLEEINNSKMEEFIGMDDQYDFFVDPENFDYKKFIPSWLKNYNDKLLGKIAGNKHMKHHVIEVLKERVKNSNDKRYLEILMNYFI
notes: DSR2, Sir2 domain-containing NADase, Bacillus subtilis 29 R, WP_029317421, full length (domains described over residues 1-1005); Cloned into pRSF-32M or pET-32M.3C (both add N-terminal thioredoxin and 6xHis); Crosslinked with BS3 for part of the cryo-EM data; also called WT DSR2; wild-type (WT) DSR2; source: E. coli BL21 (DE3), purified (Ni-NTA, size exclusion); for the DSR2-DSAD1 complex …
B3: DSR2 (H171A) catalytically inactive mutant (enzyme, Bacillus subtilis 29 R, UniProt P0DXN8 1-1005, looked up)
chain: B2 chain with H171A
notes: DSR2, Bacillus subtilis 29 R, WP_029317421, full length, with H171A; Crosslinked with 1 mM BS3 before cryo-EM; source: E. coli BL21 (DE3), purified (Ni-NTA, size exclusion)
B4: DSR2 Y260E mutant (enzyme, Bacillus subtilis 29 R, UniProt P0DXN8 1-1005, looked up)
chain: B2 chain with Y260E
notes: DSR2, Bacillus subtilis 29 R, WP_029317421, full length, with Y260E; AUC mass 215 kDa against 425 kDa for the wild type; source: E. coli BL21 (DE3), purified
B5: tail tube protein (TTP) from SPR phage (natural protein, UniProt A0AAE9G628 1-264, looked up)
chain: MKTVIQDTADVYFKRKSDGKLVFTAEAQTASFSQAISEEKLRGGIGNKPLYILKSEKEINLTVKNAFFDLEWLAMTQGETIQEETKVKVFDREHGLIVDDTNKVTLKGKPVSDVTFYNKKGLTYKIAVSTDGTYTIPTAFAAAKDKLTAVYQIEKVGRRLAIKASKFSERYEVEYRTIAYNPDTEEVYSDIYIQFPNVSPSGEFEMSLENGNALAPEIKFEALADTDTDEMAVVIEASRDENTAAPVEDTTGSTQSSDLGGTTE
notes: tail tube protein (TTP), SPR phage, WP_010328117, full length; Residues 80-167 have no density in the cryo-EM map; source: E. coli BL21 (DE3), purified (Ni-NTA, size exclusion)

Data set [1] addresses B2. The data set is described as follows: cryo-EM structure; DSR2-DSAD1 complex co-expressed in E. coli and co-purified; uncrosslinked and BS3-crosslinked samples. To be noted: both partners purified.
Data set [2] concerns the molecule itself. Described as above.
Data set [3] concerns the molecule itself. Kind of data set: cryo-EM structure; DSR2 (H171A) alone, crosslinked with 1 mM BS3 in the presence of NAD+; 20 mM HEPES pH 7.5, 100 mM NaCl, 0.5 mM TCEP.
Data set [4] deals with the molecule itself. The data set is described as follows: AUC; sedimentation velocity, 12 °C, 0.8 mg/ml, 20 mM Tris-HCl pH 7.5, 100 mM NaCl, 1 mM DTT; SEDFIT.
Data set [5] deals with B3. Kind of data set: cryo-EM structure; purified DSR2 (H171A)-TTP complex, crosslinked with 1 mM BS3, with 1 mM NAD+; 20 mM HEPES pH 7.5, 100 mM NaCl, 0.5 mM TCEP. To be noted: both partners purified.

With B1, the “stoichiometry N” value in data set [1] was 0.5 DSAD1 per DSR2 (2:4).

As to B2, the “stoichiometry N” value in data set [2] stood at 4.

As for B3, in data set [3], the “stoichiometry N” value was found to be 4.

For B4, the binding result in data set [4] is listed as “binds”.

With B5, the “stoichiometry N” value in data set [5] was 0.5 TTP per DSR2 (2:4).
